assay: soluble fraction after stress (log2 fold change); higher = more stays soluble; pooled small domains, quantitative proteomics; settings: stress: 50 degC
Method in brief: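 Custom libraries of small protein domains were pooled and measured in a high-throughput format, with quantitative proteomics as the read-out. Each library was stressed at 50°C. The value is the log2 fold change in the amount of each protein that stays soluble after stress, used as a measure of aggregation propensity; higher values mean more of the protein stays soluble.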

Sequence	soluble fraction (log2)
HMEEYTVEFVKHKVKRKQTLYTISKLYNVSIDDIIKYNSQIEGFNLSRRMELNIPVKKTLIVKNE	-1.7
HMSEEQLKAFLEKVQGDTSLQEKLKAAADANAVVEIAKEAGFSISADDLKNAQSELSEEELE	-0.0697
HMRLSESLLDDIPGIGAARKRALLQSFGSVRKLRHADAEEIAAKVPGIGLNFAEKIVEALRKK	0.205
HMKTITVEDEQAGKRLDKALAELFPHYSRSALEKLIKEGQVLVNKSFVKSKYSLKLGDEISLQFEQL	0.173
HMVKIIHYEVYANRGDGWKLVDQFSADQRQEAVNLAKEIETEDQVAVKIIREIFDVQDNTYQESVEYIG	-0.51
HMYSQEEKRYMEIMEIKPQELSAENLKKQYKKLVKKYHPDLHQDDKQAAEEKFKQLTNAYQVLMRRF	0.0779
HMTIELAEGQHFLQISKSGAPMGNVVRDLIIQTLKITNGNQIKAAKILGISRAKLRYRIEQLGINITGKNI	-2.67
HMGDLVKGKVVGYDPDNVIVDIGAKTNALVPNREAVVEAGDDIKETLKKGNEYEFLIIRDEDEEGEFL	0.29
HMNTELFTKNLFNKLEVLLGEKNWKSKTAQLLNISSDAFYKKIRNESQLNLHELLLIKDTFKISIDALLDE	-1.24
HMTTVRLNATVPPELALQRLDRVARELFPEYSRNRLQQWIRSGELLVNGSPSGVRDKVPLGAELAVAANLE	-0.416
HMTLPEKSKRLFSQDDFWDQIFYRIGEGQSLREVSKYYKIPYTTIHDRIHSDEGIKLKYLEALTS	-0.71
HMREVEAPRDLLAALGERPGALDAWKALSFTHQREYVEAIEDARKPETRERRIANAVKMVAERS	0.285
HMDNVQLRNFAIKATEASIIYLDQEQRNFFWYNNNKKLMTVPFDENPYSAFAAYLKTDEGSEVYKAIEKKF	-1.68
HMSEVIYVAEDNVGQRIDVFLVNKLVDASRANIQKNIVDGVILVNNKNVKANYKLRLGDVVEIRTQ	0.156
HMGSNRPLALGDVVRIEGSKTLGTILELNAKDAVVALGALKTTLPLSRIHHASSQESQRLKRQATQAPLR	0.123
HMSETAVTYNEDFEADGSLRPNEQAVLDAFTGVLKLTVSELEKKTGLRNVVPVVASLMAKGAVEVSEELK	0.0501
HMDLMKKTLTKEMLLIDFMKQQFPDSSTNKLRKMLSSGRVKINNLITHKAKSQLKLGDIFELANKPHD	-0.826
HMLETLVYPNPTTDKILLSSPVDYHLFSLKGELVLEGRGSSIEVSQLSKGVYFLNTKTQTFKIIK	-0.383
HMHTADDFKQLAKQTSNGQLRTRYLALYLFKNGETRTQIATYLGVARGSVNTWVSNYLAHGLEGLQSKP	-2.65
HMLAEEAFNKQAATAGYVYRDGSYHPAASVAQYDAMPRNYRTNTMAQELSRSQVESQLQQSQ	0.436
HMPMTDYQLIRSNRRTIALQITRDARVVVRAPLYASEADIRRFVESHRAWIESHLDRQRARTD	-1.76
HMDIDGVSENGRLILAALDKEALDFDTLAAETGIQESRLRTELTLLEIRKLIMKLPGQRYRLI	0.0016
HMETPQIVARGDLITMVFRSGSLVLTAKGKALENGAMGDTIRVVNSDSNKTLAARVSASREVTVSE	-0.417
HMTGVPYLVRVKITDLHIRSGPGTNYASKGFIAPGAYTIVEESTGQGAALWGKLKSGKGWIALGYTEK	-1.09
HMVITATYTDFMDALEADEVKQVQFSSTEINYTIEKGGHVQYFKTGVVDNPQLPQILREKGVTYAAEIP	-0.0375
HMHSIFPVIRSTSFPTKSNDGELFITSDHTAETRIYYALDLGNTYRLIDQKVMNEINLTESLVKETARF	-1.9

Sequence	soluble fraction (log2)
HMPESFSEMQKRTGVGEFSDDALSAKYVDSIDADVMSLDEYIMKVRGISLDDLEAERALRAR	0.0325
HMDIFSSFVAIKNANVRELPTAKSAQVATLSKGSEVTALGKVKGKNWYLVARDGKELGYVFGSLIAEAET	-1.29
HMEKIIGQIQINQRGNGYVIVPNVKDDIFVKRENLNSARQGDRVAVQLLSRPNQKPEGLVQEVLERGQ	0.461
HMQINLSEWVLAAREYAGPEMTQEKLAEHLGRTKANVSAMENGRSKPSFEQMMEIHRVTGYPLPYQ	-0.218
HMLEQISDINILSGYAKEVIAENPKTVSDYLSGKAAAFQALVGQVMKKTGGRGNPVIIQEILKRLIHKK	0.116
HMFIGFLHQLKEAGVPVSIREYLDFLSGLDKGITNLNTNSFYHFARASLVKDERHYDRFDRTFSEFFEGAL	-3
HMYDESVFTGEYHYYYEKLSDDDKLIYRQIYAMMQKRMDGISLNTTDTDNVSRIQQFVLLDNPQF	-3.04
HMELEFLTEKQKEALILAVNRGYYDVDSEVTLKRLADELGIARSTYGEHLKRAESEALKMVVSDLLRD	-0.382
HMALPPPELRGATGEAVTALRPAGIALIQGKRYDVLAEGGEWIAAGAAVRVRDIRNGHLIVSDA	0.00767
HMIAVLEEGSRFRAINDISGKPFGPEMIIKNGQVIAAGKKILTKPKKLIGKKEGTKFNISGKEYVIKDI	-0.614
HMNAKKSTLQLDLLKQLLEGNKISLKDFSLSNEISIRTAQRYIEDLLEIFEKNIVKEGDFYSFIS	-2.3
HMQRYYDVLGLQKGVSPEELKKTYRELSKKYHPDAHHNSPLRDLAEAKFKEINEAYEKIKEFLDNNF	0.15
HMGQKASEVEKIFVELQQQIIRGDLPPGYRLVESQIAAQFGVSRTPARLAIERLATAGLVAHETNRGATVH	-0.42
HMQESVTVSAQALRRLLEKGDGDAALLYLALLRHHGTIQPRALAGELRWERPRIEAAEEALRQMGLIA	-0.0318
HMRRKNQVQSSYQKRENGTYTVRFFLSDDMGSIMDLQLMATREDMARALRERFLKDPEKIYGQIMQMLLR	-0.255
HMAEGPYSGKKVEKYPGGMEKRETMYSEGKLTRVTEFHQSGQKKMEVKVDANGQWKRLYWDNNGNPT	0.07
HMKLTPKQQQIYDFISSFADEHGYPPSVREIAQAVNLKSPATVHFHLKGLREAGYISQAEGKTRAITI	-0.117
HMQTEFVISSGEQPKRLDVFLLQREPYLSRAALQRMIAAGWVRVNNHLAKSSQRIKAGDVIVFD	-1.41
HMGLLEMPSERERQVLVLIAEGLSNKEIAARLYLTEGTVKNHAHSLYAKLNVTTRTLAIARARQLGI	-1.54
HMFNDGEIAIYTDPRGDAGETQIWKRGKGYYGQNDSFDFEAKDKKELEMKLKRWGYVLIAGSIDE	-0.291
HMSYLDTLPGRRVAAQGAITGDAGTLAVDGDTWSARVEPGAPDVAPGDEVTVLRIDGATLVVRPLP	-0.0478
HMKHVENLSDEKTIQAIQENPYMQYLLGLSKFTEKPVFVPELFVLIRKRLDQDFFNMLTLILAEADG	0.143
HMYRIGELAKLADVTPDTIRYYEKQQMMDHDVRTEGGFRLYSDNDLQRLKFIRYARQLGFTLEAIRELLSI	-1.81
HMSPRAIYVTTSDLNMRMQPSPNAYKRGVAPRGTELLVVEWGDDWSKVIFEGDTAYAASRYLSYVKDEP	-0.487
HMTAGTTALNKLQQGMSTQQVQAALGTPSDRTVKESGVELWKYYYPYENMLLYLKFRDGHLVSFGTN	-0.0161
HMKMNFNEEEQKLLSEANVLVETNKTYTDDEVKGFSNKIVEHIMTFSKTDIPKVKSKFDPILFKI	-0.244

Sequence	soluble fraction (log2)
HMKNLTEVEYSEFLESIAQDRVSKVQVDGLIIRGEMNDGQRFETVQPQVTDKALIDDMVNHRVDFSGARP	0.0951
HMASVLTGMLGRVTGELAPKGIVMVGNETWTAVSEDDSVIRIGEPVEVRSVEGLILTVFRRID	-2.53
HMDLLVWRVADEDAGERIDKLVVDSLDDVSRTAVQQWIKDGLVTVNGKTVKPNYKAAAGDEVAVSVPEPE	0.149
HMQVFDSNEIDEVVKKVIENNPQAVADFKKGKSNALQFLAGQVMRETKGRFNPNVVQERIRLLLT	0.458
HMTTVTVGSKVRVKAGATFSDGAKPFAEVYNTVYDVQLLSHNGKEARIGIGDQWTGWIYISDLYLANQPAP	-0.102
HMGLLLSQLDKDYQRYIDLADSTFRDNQLAVSRGWYNRALGVKAAEKYPKDQIAEIEKKIAERM	-0.181
HMLKEGIKEKINQLQVYADKNDNIIWYDRVVDILSDKDDSVTDEMIEAAIRTLEEAGISVERKQ	0.0259
HMKKASLSTVEKKLMKQNYSNDTMENRLARVESYMFGTVFSSDDTQTRIDRISSAYNAQKSS	0.142
HMTLDEFTDLMNLFKTGHIEQKPVILYGYNYWTSLKSWFEFNNMKFPEMYIDGIINTVDEFKILYNKIF	-0.982
HMAKKDVESTLGGRLRVARVRAGLTQVELARMLGMNSVSLSNVEGGRRGLSMKQLVRVAKILEVPVAYLLG	-1.65
HMGGQYQVRPGETLNQIAARVRPSNMSLSETQKAIIQANPDIFKNGNPNLIFAGDILRIPTGNQI	0.211
HMKQQNFADLAGRFVFNADNEVVFNFGKHKNVPVATVLKNEPGYYGWMMGGDFPLFTKKILKQIKEA	-0.847
HMPLPFSPVMFVGTKSGAQTDLDGNYKIETYYSSDSLKVVVLGYAPLAKKVKQGTTSVVNFELSAAS	0.113
HMTKTKFLSKDMILSAMSRTKSNRAAARYLSVSFVHYKKYAREYKDETSGVSLWEKHKNQSGTGIPK	-1.92
HMEPTIGTATVTSGSRLNMRSAKSTSASVVTRIPSGATVGVISYASDWSKVTYNGYTGYVSSPYISMNG	-0.198
HMSSESIKTDKNVGVGSTLEELEKAYGSDYTLSGKMYRYYQDDNSKYMYFFILNDVVQYYGYGIDV	-1.53
HMNVVSIEHIRTHLQNHLSLIGRSIEESFNEAKVIAFVASLFLTHRGYASVSQDMGTNGEIYLQDLW	-0.381
HMGAITGLQSRVAFLKGQGTITDAEAKTAMAFLPDPTDSKEVKIAKIGQAREYIMSLIENRA	-0.106
HMEMKHKNSQIFQAIKLKHMGFTPTQISEELRVSRTTINHWLTKAQLKDVKWEDIRENSADELVKLLFG	-0.229
HMHPEETVNLILDAAFRLFLEKGYEHTSIQDIIGQLGGLSKGAIYHHFNSKEDILIAVTDRMTA	-1.81
HMLVTQSITVPMAMSGIRLDAALAMLFPDHSRNRLKAWLDDGHILVDGAVWAGKQRLEGNEEITATLPEAK	-0.207
HMSFYSVVISQDGSMLVAENRNEIYSNEELLELASEVNEKTGTIGTIGSLMYYKADKGGYTLITFLDNS	-3.02
HMKEQLLLGFKVRSLRGIDLGFVKFIEGSAFQSFLKTDLTIIPNVPNYVKKIDNVKKIILVDWESD	-2.69
HMAEPAEDLLSLEGMDKGLAYQLASNGVVTREDLAELATDDLLEIREMDAEQAAALIMKAREHWFEAEQQ	0.211

From the domain aggregation screens of Martell et al. (2025)
